Numbering of substitutions follows the chain as printed.
T1: P. falciparum FVO AMA1 recombinant allelic protein (Plasmodium falciparum, UniProt P50490 83-531)
T1 sequence: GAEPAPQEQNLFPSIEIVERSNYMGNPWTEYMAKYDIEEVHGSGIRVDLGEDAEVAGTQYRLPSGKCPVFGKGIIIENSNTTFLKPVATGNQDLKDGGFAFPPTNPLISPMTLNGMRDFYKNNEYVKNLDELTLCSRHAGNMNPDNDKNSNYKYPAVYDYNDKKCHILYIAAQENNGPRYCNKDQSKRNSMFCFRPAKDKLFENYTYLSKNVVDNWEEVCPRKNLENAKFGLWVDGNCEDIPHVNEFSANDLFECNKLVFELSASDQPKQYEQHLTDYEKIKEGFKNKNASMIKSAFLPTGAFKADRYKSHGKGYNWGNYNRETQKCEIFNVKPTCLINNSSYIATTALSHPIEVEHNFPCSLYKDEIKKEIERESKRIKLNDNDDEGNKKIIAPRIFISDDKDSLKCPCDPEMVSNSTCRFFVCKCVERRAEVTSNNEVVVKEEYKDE

T2: P. falciparum W2mef AMA1 recombinant allelic protein (Plasmodium falciparum, UniProt P50492 83-531)
T2 chain: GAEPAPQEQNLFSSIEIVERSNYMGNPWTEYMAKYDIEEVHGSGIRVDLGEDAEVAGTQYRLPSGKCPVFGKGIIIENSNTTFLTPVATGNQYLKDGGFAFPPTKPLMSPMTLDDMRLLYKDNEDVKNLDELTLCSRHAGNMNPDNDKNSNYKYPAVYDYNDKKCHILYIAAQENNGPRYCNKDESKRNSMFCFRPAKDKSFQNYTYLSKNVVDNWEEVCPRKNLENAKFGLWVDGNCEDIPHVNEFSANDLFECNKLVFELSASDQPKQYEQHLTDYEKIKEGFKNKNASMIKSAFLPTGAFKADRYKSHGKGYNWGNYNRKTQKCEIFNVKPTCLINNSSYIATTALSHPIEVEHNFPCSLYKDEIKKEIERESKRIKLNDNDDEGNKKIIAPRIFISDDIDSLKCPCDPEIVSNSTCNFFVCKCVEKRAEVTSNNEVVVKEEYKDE

T3: P. falciparum 3D7 AMA1 recombinant allelic protein (Plasmodium falciparum, UniProt P22621 83-531)
T3 chain: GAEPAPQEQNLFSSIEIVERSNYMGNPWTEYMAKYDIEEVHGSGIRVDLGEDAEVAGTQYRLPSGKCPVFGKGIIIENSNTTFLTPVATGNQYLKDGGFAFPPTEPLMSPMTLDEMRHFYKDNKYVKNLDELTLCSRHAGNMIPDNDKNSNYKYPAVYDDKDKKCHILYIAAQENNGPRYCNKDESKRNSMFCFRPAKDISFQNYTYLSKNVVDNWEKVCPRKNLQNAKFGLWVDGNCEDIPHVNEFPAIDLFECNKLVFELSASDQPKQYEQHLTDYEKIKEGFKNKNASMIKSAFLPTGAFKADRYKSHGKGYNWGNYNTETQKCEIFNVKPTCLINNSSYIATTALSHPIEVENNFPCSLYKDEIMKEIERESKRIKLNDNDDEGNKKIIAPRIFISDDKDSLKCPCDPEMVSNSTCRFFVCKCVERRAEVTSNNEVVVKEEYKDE

T4: P. falciparum 7G8 AMA1 recombinant allelic protein (Plasmodium falciparum, UniProt P50492 83-531)
T4 sequence: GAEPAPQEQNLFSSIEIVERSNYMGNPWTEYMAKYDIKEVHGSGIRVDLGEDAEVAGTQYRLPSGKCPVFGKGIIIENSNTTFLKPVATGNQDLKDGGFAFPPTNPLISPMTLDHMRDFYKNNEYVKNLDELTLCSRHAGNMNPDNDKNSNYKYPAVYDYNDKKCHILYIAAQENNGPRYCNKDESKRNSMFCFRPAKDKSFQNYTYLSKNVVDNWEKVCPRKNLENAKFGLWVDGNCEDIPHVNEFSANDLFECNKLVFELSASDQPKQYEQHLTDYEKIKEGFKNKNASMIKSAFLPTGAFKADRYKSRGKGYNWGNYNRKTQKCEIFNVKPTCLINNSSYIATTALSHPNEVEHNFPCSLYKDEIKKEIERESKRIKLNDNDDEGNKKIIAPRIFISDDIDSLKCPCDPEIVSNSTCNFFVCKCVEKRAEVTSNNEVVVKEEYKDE

T5: P. falciparum HB3 AMA1 recombinant allelic protein (Plasmodium falciparum, UniProt P50491 83-531)
T5 sequence: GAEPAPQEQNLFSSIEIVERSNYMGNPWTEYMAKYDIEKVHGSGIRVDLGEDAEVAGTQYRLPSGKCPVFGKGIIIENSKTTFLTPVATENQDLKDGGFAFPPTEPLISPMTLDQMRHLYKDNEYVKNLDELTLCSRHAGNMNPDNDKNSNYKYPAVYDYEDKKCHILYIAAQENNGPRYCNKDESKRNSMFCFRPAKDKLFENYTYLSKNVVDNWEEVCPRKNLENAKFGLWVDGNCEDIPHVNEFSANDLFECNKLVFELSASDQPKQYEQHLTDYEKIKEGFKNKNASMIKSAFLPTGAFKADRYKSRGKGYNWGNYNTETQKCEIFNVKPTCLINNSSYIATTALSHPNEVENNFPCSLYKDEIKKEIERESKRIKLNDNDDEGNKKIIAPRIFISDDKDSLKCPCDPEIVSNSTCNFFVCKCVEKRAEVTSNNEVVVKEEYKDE

B1: monoclonal antibody 1E10 (antibody, V domains shown)
VH: EVQLQESGAELAKPGASVKLSCKASGYTFTNYLMHWIKQRPGQGLEWIGYINHGSGYTNYNQKFIDRATLTADKSSSTAYMQLRSLTYEDSAVYYCVHGYFDVWGTGTTVTVSS
VL: QIVLTQSPTIMSASPGEKVTMTCSASSSVTYMHWYQQKPGTSPKRWIYDTSKLASGVPARFSGSGSGTSYSLTISSMEAEDAATYYCHQRSSYPTFGGGTKLEIKR
notes: Mouse monoclonal raised against QV, purified from ascites on Protein G; also called mAb 1E10; Monoclonal 1E10
B2: monoclonal antibody 1B10 (antibody, V domains shown)
VH: EVQLQESGPGLVQPSQSLSITCTVSGFSLNMYGVHWVRQSPGKGLEWLGVIWSGGTTDYNAAFISRLSINRDNSKSQVFFKMNSLQTDDTAIYYCVRNNGYYVDAMDYWGQGTSVAVSS
VL: DVVMTQTPLSLPVSLGDQASISCRSSQSLVHSNGNTYLHWYLQRPGQSPKLLIYKVSNRFSGVPDRFSGSGSGTDFTLKISRVEAEDLGVYFCSQSTLGPTFGGGTKLEMQR
B3: monoclonal antibody 4E8 (antibody, V domains shown)
VH: B2 VH with G26D, N30I, T56S, N70S, R71K, T87A, V96A, A116T
VL: B2 VL with S32N, R44K, S61F, L98H, G99V, M110I, Q111K
B4: monoclonal antibody 4E11 (antibody, V domains shown)
VH: EVQLQESGPGLVRPSQSLSITCTVSGFSLPLYGVHWVRQSPGKGLEWLGVIWSGGSTDYNAAFVSRLSISKDNSKSQVFFEMNSLQADDTATYYCARNNGYYVDAMDYWGQGTSVTVSS
VL: B2 VL with R44K, Y54F, K79Q, V90F, L98H, G99V, M110I, Q111K

What was measured:
[1] = target: T6, AMA1 on P. falciparum 3D7 strain parasites (Plasmodium falciparum); experiment: cell-based or functional assay
[2] = target: T1, P. falciparum FVO AMA1 recombinant …; experiment: dot blot against 7 AMA1 allelic proteins
[3] = target: T2, P. falciparum W2mef AMA1 recombinant …; experiment: dot blot against 7 AMA1 allelic proteins
[4] = target: T3, P. falciparum 3D7 AMA1 recombinant …; experiment: dot blot against 7 AMA1 allelic proteins
[5] = target: T4, P. falciparum 7G8 AMA1 recombinant …; experiment: dot blot against 7 AMA1 allelic proteins
[6] = target: T5, P. falciparum HB3 AMA1 recombinant …; experiment: dot blot against 7 AMA1 allelic proteins
[7] = target: T6, AMA1 on P. falciparum 3D7 strain …; experiment: cell-based or functional assay; remark: listed apart in the source

Binder	IC30 concentration (30% inhibition against the 3D7 target parasites, GIA) [1] [µg/mL]	binding result [2]	binding result [3]	binding result [4]	binding result [5]	binding result [6]	Inhibition (GIA at 1 mg/ml against the 3D7 target strain) [7] [%]
B1	1900	binds	binds	binds	binds	binds	20
B2	150	–	–	–	–	–	65
B3	150	–	–	–	–	–	67
B4	220	–	–	–	–	–	62

Source: patent US20160279221A1 (UNITED STATES OF AMERICA AS REPRESENTED BY THE SECRETARY OF …, published 2016)
